Data from patent US20060194739 (published 2006).
Non-standard residues stand in square brackets, D forms with d. No end group written: not given here. *: point of attachment. Trp(5-CN) = N#Cc1ccc2[nH]cc(C[C@H](N)C(=O)O)c2c1; Ac6c = NC1(C(=O)O)CCCCC1; Hexanoyl = CCCCCC(=O)*; Propionyl = CCC(=O)*; Ahx = NCCCCCC(=O)O

Experiments:
ORL1 [1] = biological target: ORL1 (UniProt P41146); test: competition
ORL1 [2] = biological target: ORL1 (UniProt P41146); test: competition, [3H]nociceptin
ORL1 [3] = biological target: ORL1 (UniProt P41146); test: competition; remark: listed apart in the source

ORL1, sequence (P41146 whole entry): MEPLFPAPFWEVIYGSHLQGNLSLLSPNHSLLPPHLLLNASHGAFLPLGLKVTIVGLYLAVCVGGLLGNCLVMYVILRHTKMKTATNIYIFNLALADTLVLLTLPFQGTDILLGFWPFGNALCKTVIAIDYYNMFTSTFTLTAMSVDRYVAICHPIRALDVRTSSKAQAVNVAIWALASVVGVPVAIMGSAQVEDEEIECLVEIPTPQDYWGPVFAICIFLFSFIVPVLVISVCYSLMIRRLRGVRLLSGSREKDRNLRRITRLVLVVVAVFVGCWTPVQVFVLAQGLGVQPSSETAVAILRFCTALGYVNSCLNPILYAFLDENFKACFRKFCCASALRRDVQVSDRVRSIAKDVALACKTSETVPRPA

Row | Binder | IC50 (ORL1 [1]) [nM] | Ki (ORL1 [3]) [nM] | further results
1 | Hexanoyl-RYYAWR-NH2 (SMILES CCCCCC(=O)N[C@@H](CCCNC(=N)N)C(=O)N[C@@H](Cc1ccc(O)cc1)C(=O)N[C@@H](Cc1ccc(O)cc1)C(=O)N[C@@H](C)C(=O)N[C@@H](Cc1c[nH]c2ccccc12)C(=O)N[C@@H](CCCNC(=N)N)C(N)=O) [IV-39-B] | 1000 |  | 
2 | Propionyl-RYYAWR-NH2 (SMILES CCC(=O)N[C@@H](CCCNC(=N)N)C(=O)N[C@@H](Cc1ccc(O)cc1)C(=O)N[C@@H](Cc1ccc(O)cc1)C(=O)N[C@@H](C)C(=O)N[C@@H](Cc1c[nH]c2ccccc12)C(=O)N[C@@H](CCCNC(=N)N)C(N)=O) [IV-27-B] | 400 |  | 
3 | Ac-R[dY]Y[dR]WR-NH2 (SMILES CC(=O)N[C@@H](CCCNC(=N)N)C(=O)N[C@H](Cc1ccc(O)cc1)C(=O)N[C@@H](Cc1ccc(O)cc1)C(=O)N[C@H](CCCNC(=N)N)C(=O)N[C@@H](Cc1c[nH]c2ccccc12)C(=O)N[C@@H](CCCNC(=N)N)C(N)=O) [IV-12-B] |  |  | IC50 (ORL1 [2]): 1140 nM
4 | [Ac6c]RYYRWR-NH2 (N-terminus assumed; SMILES N=C(N)NCCC[C@H](NC(=O)[C@H](Cc1c[nH]c2ccccc12)NC(=O)[C@H](CCCNC(=N)N)NC(=O)[C@H](Cc1ccc(O)cc1)NC(=O)[C@H](Cc1ccc(O)cc1)NC(=O)[C@H](CCCNC(=N)N)NC(=O)C1(N)CCCCC1)C(N)=O) [VII-4-B] |  | 9.25 | 
5 | Propionyl-AYYRWR-NH2 (SMILES CCC(=O)N[C@@H](C)C(=O)N[C@@H](Cc1ccc(O)cc1)C(=O)N[C@@H](Cc1ccc(O)cc1)C(=O)N[C@@H](CCCNC(=N)N)C(=O)N[C@@H](Cc1c[nH]c2ccccc12)C(=O)N[C@@H](CCCNC(=N)N)C(N)=O) [IV-21-C] | 1780 |  | 
6 | Propionyl-RAYRWR-NH2 (SMILES CCC(=O)N[C@@H](CCCNC(=N)N)C(=O)N[C@@H](C)C(=O)N[C@@H](Cc1ccc(O)cc1)C(=O)N[C@@H](CCCNC(=N)N)C(=O)N[C@@H](Cc1c[nH]c2ccccc12)C(=O)N[C@@H](CCCNC(=N)N)C(N)=O) [IV-23-B] | 182 |  | 
7 | Hexanoyl-RAYRWR-NH2 (SMILES CCCCCC(=O)N[C@@H](CCCNC(=N)N)C(=O)N[C@@H](C)C(=O)N[C@@H](Cc1ccc(O)cc1)C(=O)N[C@@H](CCCNC(=N)N)C(=O)N[C@@H](Cc1c[nH]c2ccccc12)C(=O)N[C@@H](CCCNC(=N)N)C(N)=O) [IV-35-B] | 113 |  | 
8 | Hexanoyl-RYYRAR-NH2 (SMILES CCCCCC(=O)N[C@@H](CCCNC(=N)N)C(=O)N[C@@H](Cc1ccc(O)cc1)C(=O)N[C@@H](Cc1ccc(O)cc1)C(=O)N[C@@H](CCCNC(=N)N)C(=O)N[C@@H](C)C(=O)N[C@@H](CCCNC(=N)N)C(N)=O) [IV-41-B] | 710 |  | 
9 | Ac-RYY[Ahx]WR-NH2 (SMILES CC(=O)N[C@@H](CCCNC(=N)N)C(=O)N[C@@H](Cc1ccc(O)cc1)C(=O)N[C@@H](Cc1ccc(O)cc1)C(=O)NCCCCCC(=O)N[C@@H](Cc1c[nH]c2ccccc12)C(=O)N[C@@H](CCCNC(=N)N)C(N)=O) [VII-55-A] |  | 39 | 
10 | Propionyl-RYYRAR-NH2 (SMILES CCC(=O)N[C@@H](CCCNC(=N)N)C(=O)N[C@@H](Cc1ccc(O)cc1)C(=O)N[C@@H](Cc1ccc(O)cc1)C(=O)N[C@@H](CCCNC(=N)N)C(=O)N[C@@H](C)C(=O)N[C@@H](CCCNC(=N)N)C(N)=O) [IV-29-B] | 1890 |  | 
11 | Ac-RYYRW[Ahx]-NH2 (SMILES CC(=O)N[C@@H](CCCNC(=N)N)C(=O)N[C@@H](Cc1ccc(O)cc1)C(=O)N[C@@H](Cc1ccc(O)cc1)C(=O)N[C@@H](CCCNC(=N)N)C(=O)N[C@@H](Cc1c[nH]c2ccccc12)C(=O)NCCCCCC(N)=O) [VII-57-C] |  | 41.9 | 
12 | Hexanoyl-AYYRWR-NH2 (SMILES CCCCCC(=O)N[C@@H](C)C(=O)N[C@@H](Cc1ccc(O)cc1)C(=O)N[C@@H](Cc1ccc(O)cc1)C(=O)N[C@@H](CCCNC(=N)N)C(=O)N[C@@H](Cc1c[nH]c2ccccc12)C(=O)N[C@@H](CCCNC(=N)N)C(N)=O) [IV-33-B] | 1020 |  | 
13 | Ac-RYYR[Trp(5-CN)]R-NH2 (SMILES CC(=O)N[C@@H](CCCNC(=N)N)C(=O)N[C@@H](Cc1ccc(O)cc1)C(=O)N[C@@H](Cc1ccc(O)cc1)C(=O)N[C@@H](CCCNC(=N)N)C(=O)N[C@@H](Cc1c[nH]c2ccc(C#N)cc12)C(=O)N[C@@H](CCCNC(=N)N)C(N)=O) [VII-51-A] |  | 0.3 | 
